The values below come from patent US20240124539A1 (NEW YORK UNIVERSITY, published 2024).

Positions of bridges follow the written chain, without caps; N, C: chain ends. Non-standard residues stand in square brackets, D forms with d. Primed or numbered codes have the meaning given here. Chains are numbered I, II in the order given. *: point of attachment. dibenzylether crosslinker″ = crosslinker alkylating both cysteine thiols, drawn in Scheme 1 and; dibenzylether crosslinker = scaffold alkylating both cysteine thiols (drawn in Scheme 1 and; dibenzylether crosslinker(3) = scaffold alkylating both cysteine thiols (Scheme 1; FITC = O=C1OC2(c3ccc(O)cc3Oc3cc(O)ccc32)c2ccc(NC(=S)*)cc21; FITC′ = fluorescein isothiocyanate, linked via thiourea; βAla = NCCC(=O)O

Assay [1] concerns the target T1, wild-type His6-tagged H-Ras (1-166) pre-loaded with GDP (UniProt P01112 1-166).
T1 construct: range 1-166; also called His6-H-Ras-GDP; not shown: N-terminal His6 tag with TEV site from the pProEx HTb vector
Nature of the assay: fluorescence polarization, fluorescein-labelled CHD, His6-H-Ras-GDP titrated.

Assay [2] has as its target T1, wild-type His6-tagged H-Ras (1-166) …. The assay can be described thus: fluorescence polarization, fluorescein-labelled CHD (15 nM), His6-H-Ras-GDP titrated.
Procedure: (§1) The generated binding affinity (KD) values for each compound are from biological triplicate studies and were determined via fitting to a sigmoidal dose-response nonlinear regression model on Graphpad Prism 6.
For assay [3] the target is unchanged. Nature of the assay: direct fluorescence polarization; fluorescein-labelled CHD titrated with GDP-loaded WT H-Ras.
Procedure: as §1
Assay [4] concerns the target T2, fluorescently-labeled wild-type H-Ras-GDP (MST) (UniProt P01112 1-166, cysteine-reactive dye (Monolith RED-MALEIMIDE 2nd Generation or AFDye 647 maleimide) on cysteine, degree of label 0.43).
T2 construct: range 1-166; also called fluorescently-labeled Ras; wild-type H-Ras labeled with AFDye 647; not shown: N-terminal His6 tag from pProEx HTb
Nature of the assay: microscale thermophoresis (column MST of the drawn table); fluorescently labelled wild-type H-Ras-GDP with serial dilutions of the unlabelled CHD.

B1: FITC-CHD^Sos-2 (designed binder)
chain 1: Ac-WIGRLCTEILRLRNGN-NH2
chain 2: {FITC′}-A[βAla]LAWRLRELERELARLC-NH2
modifications: linker I:6-II:18 via dibenzylether crosslinker; not fully specified
notes: Crosslinked helix dimer; form used in the fluorescence polarization assay; also called CHC^Sos-2 (fluorescein-derivatized); CHD-2
B1: in assay [1], the “fold enhancement in binding affinity over CHC^Sos-1” value came to 10 fold. For the same molecule, the Kd was 2.8 µM in assay [2] and 2.79 µM in assay [3].

B2: FITC-CHD^Sos-4 (designed binder)
chain 1: Ac-WIGRLCTEILRLRNGN-NH2
chain 2: {FITC′}-A[βAla]LAWALRELERELARLC-NH2
modifications: linker I:6-II:18 via dibenzylether crosslinker; not fully specified
notes: Crosslinked helix dimer; form used in the fluorescence polarization assay; also called CHC^Sos-4 (fluorescein-derivatized); CHD-4
On to B2, for which the equilibrium dissociation constant (Kd) in assay [2] was found to be 40 µM; in assay [3], 40.4 µM.

B3: FITC-CHD^Sos-6 (designed binder)
chain 1: Ac-WIGRLCTEIRRLRNGN-NH2
chain 2: {FITC}-A[βAla]LAWRLRELERELARLC-NH2
modifications: linker I:6-II:18 via dibenzylether crosslinker″; not fully specified
notes: Crosslinked helix dimer; form used in the fluorescence polarization assay; also called CHC^Sos-6 (fluorescein-derivatized)
As to B3, in assay [1], the “fold reduction in affinity against CHC^Sos-5” value was 4 fold. The Kd in assay [2] was 8.6 µM.

B4: CHD^Sos-3 (designed binder)
chain 1: Ac-AIGRLCTEILRLRNGA-NH2
chain 2: Ac-LAWRLRELERELARLC-NH2
modifications: linker I:6-II:16 via dibenzylether crosslinker(3)
notes: also called CHC^Sos-3; CHD-3
Molecule B4 gave a Kd in assay [4] greater than 10 µM.
